# Residue numbers refer to the chain shown, from its start. Names and notes keep the numbering of the source. Like-named read-outs stand apart in the source and are kept apart here.
# T1: human OX40 on cells (human, UniProt P43489 29-277)
# T1 sequence: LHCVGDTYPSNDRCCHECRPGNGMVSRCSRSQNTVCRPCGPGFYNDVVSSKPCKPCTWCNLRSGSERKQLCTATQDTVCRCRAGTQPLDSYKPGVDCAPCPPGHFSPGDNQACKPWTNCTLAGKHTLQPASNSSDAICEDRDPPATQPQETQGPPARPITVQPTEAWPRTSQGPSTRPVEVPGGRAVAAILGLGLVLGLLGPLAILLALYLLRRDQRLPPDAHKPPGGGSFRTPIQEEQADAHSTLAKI
# T2: recombinant human OX40 His (human)
# T2 construct: ectodomain with avi and hexahistidine tag; also called human Ox40 avi His
# T2 chain: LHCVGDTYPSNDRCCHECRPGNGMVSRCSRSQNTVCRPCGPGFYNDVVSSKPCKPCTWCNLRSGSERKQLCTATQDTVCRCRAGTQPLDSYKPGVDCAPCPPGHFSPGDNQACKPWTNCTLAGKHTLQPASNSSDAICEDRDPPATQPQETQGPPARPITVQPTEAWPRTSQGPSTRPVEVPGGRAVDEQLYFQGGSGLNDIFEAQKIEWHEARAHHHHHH
# T3: cynomolgus OX40 on activated cynomolgus PBMC (cynomolgus, UniProt P43489 29-214 (human entry))
# T3 construct: whole, on cells
# T3 chain: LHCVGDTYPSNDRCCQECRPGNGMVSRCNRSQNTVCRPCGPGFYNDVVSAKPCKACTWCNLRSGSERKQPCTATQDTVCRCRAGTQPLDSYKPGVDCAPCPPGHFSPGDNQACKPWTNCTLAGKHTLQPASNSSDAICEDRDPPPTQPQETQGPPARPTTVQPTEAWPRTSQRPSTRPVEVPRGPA
# T4: huOX40-SNAP fusion on Hek293 EBNA cells (human, UniProt P43489 29-277, labeled with the FRET donor Terbium)
# T4 construct: not shown: SNAP tag
# T4 sequence: T1 sequence
# B1: clone 20G2 Fab (Fab, V domains shown)
# VH: QVQLVQSGAEVKKPGSSVKVSCKASGGTFSSYAISWVRQAPGQGLEWMGGIIPIFGTANYAQKFQGRVTITADKSTSTAYMELSSLRSEDTAVYYCARSYYWESYPFDYWGQGTTVTVSS
# VL: DIQMTQSPSTLSASVGDRVTITCRASQSISSWLAWYQQKPGKAPKLLIYDASSLESGVPSRFSGSGSGTEFTLTISSLQPDDFATYYCQQQHSYYTFGQGTKVEIK
# notes: phage library Fab with CH1/CL and tags
# B2: 8H9 P329GLALA IgG1 (antibody, V domains shown)
# VH: QVQLVQSGAEVKKPGSSVKVSCKASGGTFSSYAISWVRQAPGQGLEWMGGIIPIFGTANYAQKFQGRVTITADKSTSTAYMELSSLRSEDTAVYYCAREYGWMDYWGQGTTVTVSS
# VL: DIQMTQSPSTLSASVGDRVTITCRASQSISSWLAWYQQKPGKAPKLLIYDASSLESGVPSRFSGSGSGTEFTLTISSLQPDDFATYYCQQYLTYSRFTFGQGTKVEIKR
# notes: anti-OX40; also called clone 8H9 hu IgG1
# B3: 8A06 P329GLALA IgG1 (antibody, V domains shown)
# VH: B2 VH with E99G, G101Y, W102A, M103I
# VL: SSELTQDPAVSVALGQTVRITCQGDSLRSYYASWYQQKPGQAPVLVIYGKNNRPSGIPDRFSGSSSGNTASLTITGAQAEDEADYYCNSPQTSGSAVFGGGTKLTVLG
# notes: also called anti-GITR 8A06 IgG
# B4: 6C8 P329GLALA IgG1 (antibody, V domains shown)
# VH: QVTLRESGPALVKPTQTLTLTCTFSGFSLSTSGMGVGWIRQPPGKALEWLAHIWWDDDKYYQPSLKSRLTISKDTSKNQVVLTMTNMDPVDTATYYCARTRRYFPFAYWGQGTLVTVSS
# VL: EIVMTQSPATLSVSPGERATLSCKASQNVGTNVAWYQQKPGQAPRLLIYSASYRYSGIPARFSGSGSGTEFTLTISSLQSEDFAVYYCQQYNTDPLTFGGGTKVEIKR
# notes: prepared according to WO 2006/105021; also called benchmark antibody 6C8
# B5: 8H9/FAP P329GLALA IgG1 2+2 (bispecific antibody)
# heavy: not shown
# light 1: not shown
# light 2: EIVLTQSPGTLSLSPGERATLSCRASQSVSRSYLAWYQQKPGQAPRLLIIGASTRATGIPDRFSGSGSGTDFTLTISRLEPEDFAVYYCQQGQVIPPTFGQGTKVEIKSSASTKGPSVFPLAPSSKSTSGGTAALGCLVKDYFPEPVTVSWNSGALTSGVHTFPAVLQSSGLYSLSSVVTVPSSSLGTQTYICNVNHKPSNTKVDKKVEPKSCD
# notes: also called bispecific bivalent 2+2 construct 8H9; 8H9 FAP 2+2
# B6: 28H1 IgG (antibody, V domains shown)
# VH: EVQLLESGGGLVQPGGSLRLSCAASGFTFSSHAMSWVRQAPGKGLEWVSAIWASGEQYYADSVKGRFTISRDNSKNTLYLQMNSLRAEDTAVYYCAKGWLGNFDYWGQGTLVTVSS
# VL: EIVLTQSPGTLSLSPGERATLSCRASQSVSRSYLAWYQQKPGQAPRLLIIGASTRATGIPDRFSGSGSGTDFTLTISRLEPEDFAVYYCQQGQVIPPTFGQGTKVEIK
# notes: anti-FAP control IgG
# B7: 49B4 P329GLALA IgG1 (antibody, V domains shown)
# VH: QVQLVQSGAEVKKPGSSVKVSCKASGGTFSSYAISWVRQAPGQGLEWMGGIIPIFGTANYAQKFQGRVTITADKSTSTAYMELSSLRSEDTAVYYCAREYYRGPYDYWGQGTTVTVSS
# VL: DIQMTQSPSTLSASVGDRVTITCRASQSISSWLAWYQQKPGKAPKLLIYDASSLESGVPSRFSGSGSGTEFTLTISSLQPDDFATYYCQQYSSQPYTFGQGTKVEIKR
# notes: anti-OX40; sometimes misprinted 49B9; also called 49B4 IgG1; hu IgG1 (49B4)
# B8: OX40(49B4)/FAP(4B9) P329GLALA IgG1 1+1 (bispecific antibody, V domains shown)
# VH 1: B7 VH
# VL 1: DIQMTQSPSTLSASVGDRVTITCRASQSISSWLAWYQQKPGKAPKLLIYDASSLESGVPSRFSGSGSGTEFTLTISSLQPDDFATYYCQQYSSQPYTFGQGTKVEIK
# VH 2: EVQLLESGGGLVQPGGSLRLSCAASGFTFSSYAMSWVRQAPGKGLEWVSAIIGSGASTYYADSVKGRFTISRDNSKNTLYLQMNSLRAEDTAVYYCAKGWFGGFNYWGQGTLVTVSS
# VL 2: B6 VL with S30T, R31S, I50N, G51V, A52G, T54R, Q93I, V94M, I95L
# notes: only variable domains of 49B4 and 4B9; human IgG1 P329G LALA
# Tests used:
# [1] = molecular target: T5, recombinant murine 4-1BB Fc(kih) (murine, UniProt P0DOX5 223-449 = IgG part, biotin on C-terminal Avi tag where used biotinylated); assay: phage display, Fab screening
# T5 construct: also called mu4-1BB
# [2] = molecular target: T1, human OX40 on cells; assay: cell-based or functional assay
# [3] = molecular target: T1, human OX40 on cells; assay: cell-based or functional assay; remark: listed apart in the source
# [4] = molecular target: T6, human fibroblast activation protein (huFAP) on cells (human, UniProt Q12884 1-760); assay: flow cytometry, WM266-4 cells
# T6 construct: also called NIH/3T3-huFAP clone 39; NIH/3T3-huFAP clone 19
# [5] = molecular target: T2, recombinant human OX40 His; assay: SPR, captured IgG, OX40 His analyte
# Protocol: (§1) All SPR experiments were performed on a Biacore T200 at 25° C. with HBS-EP as running buffer (0.01 M HEPES pH 7.4, 0.15 M NaCl, 3 mM EDTA, 0.005% Surfactant P20, Biacore, Freiburg/Germany).
# Setup 2) Anti-human Fc antibody (Biacore, Freiburg/Germany) was directly coupled on a CM5 chip at pH 5.0 using the standard amine coupling kit (Biacore, Freiburg/Germany). The immobilization level was approximately 8000 RU. […] The dissociation was monitored for 120 seconds. Bulk refractive index differences were corrected for by subtracting the response obtained on reference flow cell.
# [6] = molecular target: T7, recombinant human OX40 Fc(kih) (human, UniProt P0DOX5 223-449 = IgG part, biotin on C-terminal Avi tag where used biotinylated); assay: SPR, captured IgG, OX40 Fc(kih) analyte
# T7 construct: antigen Fc knob chain plus Fc hole chain; also called monomeric human OX40 antigen Fc(kih) fusion; biotinylated human OX40
# Protocol: as §1
# Setup 1) Anti-human Fab antibody (Biacore, Freiburg/Germany) was directly coupled on a CM5 chip at pH 5.0 using the standard amine coupling kit (Biacore, Freiburg/Germany). The immobilization level was approximately 9000 RU. […] The dissociation was monitored for 120 seconds. Bulk refractive index differences were corrected for by subtracting the response obtained on reference flow cell.
# [7] = molecular target: T1, human OX40 on cells; assay: flow cytometry, activated human CD4 T cells
# Protocol: Plates were centrifuged 4 minutes with 400×g and at 4° C. and supernatant was flicked off. Cell were washed once with 200 μL 4° C. cold FACS buffer (DPBS supplied with 2% FBS, 5 mM EDTA pH8 (Amresco, Cat. No. E177) and 7.5 mM Sodium azide (Sigma-Aldrich S2002)). […] Plates were washed four times with 200 μL/well 4° C. FACS buffer to remove unbound construct.
# Plates where washed twice with 200 μL/well 4° C.
# [8] = molecular target: T1, human OX40 on cells; assay: flow cytometry, activated human CD4 T cells; remark: listed apart in the source
# [9] = molecular target: recombinant cynomolgus OX40 Fc(kih) (cynomolgus, UniProt P0DOX5 223-449 = IgG part, biotin on C-terminal Avi tag where used biotinylated); assay: SPR, captured IgG, cyno OX40 Fc(kih) analyte
# Protocol: as §1
# Anti-human Fab antibody (Biacore, Freiburg/Germany) was directly coupled on a CM5 chip at pH 5.0 using the standard amine coupling kit (Biacore, Freiburg/Germany). The immobilization level was approximately 9000 RU. […] The dissociation was monitored for 120 seconds. Bulk refractive index differences were corrected for by subtracting the response obtained on reference flow cell.
# [10] = molecular target: T8, recombinant murine GITR Fc(kih) (murine, UniProt P0DOX5 223-449 = IgG part, biotin on C-terminal Avi tag); assay: SPR Biacore T200
# T8 construct: also called mu GITR-Fc
# Protocol: All SPR experiments were performed on a Biacore T200 at 25° C. with HBS-EP as running buffer (0.01 M HEPES pH 7.4, 0.15 M NaCl, 3 mM EDTA, 0.005% Surfactant P20, Biacore, Freiburg/Germany). In the same experiment, the species selectivity and the avidity of the interaction between the GITR binder (human IgG1 P329GLALA), and recombinant GITR (human, cyno and murine) was determined. […] Immobilization levels up to 100 resonance units (RU) were used.
# Anti-GITR human IgG1 P329GLALA antibody was passed at a concentration range from 0.2 to 200 nM (4-fold dilution) with a flow of 30 μL/minute through the flow cells over 120 seconds. Complex dissociation was monitored for 180 seconds. Bulk refractive index differences were corrected for by subtracting the response obtained in a reference flow cell, where no protein was immobilized.
# [11] = molecular target: T9, recombinant human GITR Fc(kih) (human, UniProt P0DOX5 223-449 = IgG part, biotin on C-terminal Avi tag where used biotinylated); assay: SPR, captured IgG, GITR Fc(kih) analyte
# T9 construct: also called hu GITR-Fc; human monomeric GITR-Fc fusion
# Protocol: (§2) In the same experiment, the affinities of the interaction between the GITR antibody (human IgG1 P329GLALA) to recombinant GITR (human and cyno) were determined. Anti-human Fab antibody (Biacore, Freiburg/Germany) was directly coupled on a CM5 chip at pH 5.0 using the standard amine coupling kit (Biacore, Freiburg/Germany). The immobilization level was approximately 7000 RU. The GITR antibody was captured for 90 seconds at 5 nM. […] The dissociation was monitored for 180 seconds. Bulk refractive index differences were corrected for by subtracting the response obtained on reference flow cell.
# [12] = molecular target: T10, recombinant cynomolgus GITR Fc(kih) (cynomolgus, UniProt P0DOX5 223-449 = IgG part, biotin on C-terminal Avi tag where used biotinylated); assay: SPR, captured IgG, GITR Fc(kih) analyte
# T10 construct: also called cy GITR-Fc
# Protocol: as §2
# [13] = molecular target: T6, human fibroblast activation protein …; assay: flow cytometry, WM266-4
# Protocol: In some assays WM266-4 cells were pre-labeled with PKH-26 Red Fluorescence Cell linker Kit (Sigma, Cat.-No. PKH26GL) as described in Example 2.3.2 to allow separation of these tumor cells from other cells present (e.g. human PBMC).
# Plates were centrifuged 4 minutes, 400×g at 4° C. and supernatants were flicked off. Cells were washed once with 200 μL DPBS and pellets were resuspended by a short and gentle vortex. All samples were resuspended in 50 μL/well of 4° C. cold FACS buffer containing the bispecific antigen binding molecules (primary antibody) at the indicated range of concentrations (titrated) and incubated for 120 minutes at 4° C. Afterwards the cells were washed four times with 200 μL 4° C.
# [14] = molecular target: T11, human FAP (His-tagged ectodomain) (human, UniProt Q12884 27-760); assay: SPR, FAP captured via anti-His, 1:1 fit, apparent KD (bivalent)
# T11 construct: SPR texts say 'human FAP' or 'His-tagged ... dimeric FAP'; also called hu FAP; human FAP (analyte 2)
# Protocol: (§3) The capacity of the bispecific constructs to bind human, murine and cynomolgus FAP was assessed by surface plasmon resonance (SPR). All SPR experiments were performed on a Biacore T200 (Biacore) at 25° C. with HBS-EP as running buffer (0.01 M HEPES pH 7.4, 0.15 M NaCl, 3 mM EDTA, 0.005% Surfactant P20, (Biacore).
# (§4) Immobilization levels for the anti-His antibody of up to 18000 resonance units (RU) were used.
# (§5) Following the capture step, the bispecific constructs as well as control molecules were immediately passed over the chip surface at a concentration ranging from 0.006-100 nM with a flow rate of 30 μL/minute for 280 s and a dissociation phase of 180 s. Bulk refractive index differences were corrected for by subtracting the response obtained in a reference flow cell, where no FAP was immobilized. Affinity was determined using the Langmuir 1:1 curve fitting. For bivalent binding the same 1:1 fitting was used leading to an apparent KD value.
# [15] = molecular target: T12, murine FAP (His-tagged ectodomain) (mouse, UniProt P97321 27-761); assay: as above
# T12 construct: also called mu FAP
# Protocol: as §3, §4, §5
# [16] = molecular target: T1, human OX40 on cells; assay: flow cytometry, activated human CD4 T cells; remark: listed apart in the source
# [17] = molecular target: T3, cynomolgus OX40 on activated cynomolgus …; assay: flow cytometry, activated cynomolgus CD4 T cells
# Protocol: Then, plates were washed four times with 200 μL/well 4° C. FACS buffer. […] Plates where washed twice with 200 μL/well 4° C.
# [18] = molecular target: T4, huOX40-SNAP fusion on Hek293 EBNA cells; assay: cell FRET competition against d2-labeled (49B4) IgG
# Protocol: For EC₅₀ determination the results were analysed in Graph Pad Prism5.
# [19] = molecular target: T11, human FAP (His-tagged ectodomain); assay: SPR, FAP captured via anti-His, 1:1 fit
# Protocol: as §3, §4, §5
# [20] = molecular target: T12, murine FAP (His-tagged ectodomain); assay: SPR, FAP captured via anti-His, 1:1 fit
# Protocol: as §3, §4, §5
# [21] = molecular target: T13, cynomolgus FAP (His-tagged ectodomain) (cynomolgus, UniProt Q12884 27-760 (human entry)); assay: SPR, FAP captured via anti-His, 1:1 fit
# T13 construct: also called cynoFAP
# Protocol: as §3, §4, §5
binder,measurement,setting,value
B1,binding result,[1],binds
B2,EC50 of NFκB activation in HeLa_hOx40_NFκB_luc1 reporter cells with secondary anti-human IgG Fcγ antibody,[2],0.66 nM
same,EC50 of rescuing suboptimal TCR stimulation with plate-immobilized anti-OX40 binder (preactivated human CD4 T cells),[3],0.003 nM
same,binding result,[4],no binding
same,Kd,[5],31 nM
same,koff,[5],0.002 s⁻¹
same,kon,[5],65000 M⁻¹ s⁻¹
same,Kd,[6],28 nM
same,koff,[6],0.0045 s⁻¹
same,kon,[6],160000 M⁻¹ s⁻¹
same,EC50,[7],0.59 nM
same,EC50,[8],0.59 nM
same,Kd,[9],670 nM
same,koff,[9],0.096 s⁻¹
same,kon,[9],140000 M⁻¹ s⁻¹
B3,binding result,[10],no binding (tested: 0.2 to 200 nM IgG)
same,Kd,[11],29 nM
same,Kd,[12],1200 nM
B4,binding result,[10],no binding (tested: 0.2 to 200 nM IgG)
same,Kd,[11],30 nM
same,koff,[11],0.0011 s⁻¹
same,kon,[11],38000 M⁻¹ s⁻¹
same,Kd,[12],190 nM
same,koff,[12],0.014 s⁻¹
same,kon,[12],73000 M⁻¹ s⁻¹
B5,EC50,[13],2.88 nM
same,EC50,[8],0.93 nM
B6,Kd,[14],0.933 nM
same,Kd,[15],0.00049 nM
B7,EC50 of NFκB activation in HeLa_hOx40_NFκB_luc1 reporter cells with secondary anti-human IgG Fcγ antibody,[2],2.42 nM
same,EC50 of rescuing suboptimal TCR stimulation with plate-immobilized anti-OX40 binder (preactivated human CD4 T cells),[3],0.591 nM
same,binding result,[4],no binding
same,Kd,[5],460 nM
same,koff,[5],0.67 s⁻¹
same,kon,[5],1.4e+06 M⁻¹ s⁻¹
same,Kd,[6],510 nM
same,koff,[6],0.13 s⁻¹
same,kon,[6],250000 M⁻¹ s⁻¹
same,EC50,[7],4.19 nM
same,EC50,[16],907 nM
same,Kd,[9],350 nM
same,koff,[9],0.038 s⁻¹
same,kon,[9],110000 M⁻¹ s⁻¹
same,EC50,[17],0.05 nM
same,EC50,[18],12.7 nM
B8,Kd,[19],0.752 nM
same,Kd,[20],4.79 nM
same,Kd,[21],0.532 nM

# Source: patent US20220073646A1 (Hoffmann-La Roche, published 2022)
